Numbering of substitutions follows the chain as printed.
T1: Epithelial cell adhesion molecule (EpCAM) (human, UniProt P16422 24-314)
T1 construct: whole, on cells; also called 17-1A antigen; KSA
T1 sequence (looked up): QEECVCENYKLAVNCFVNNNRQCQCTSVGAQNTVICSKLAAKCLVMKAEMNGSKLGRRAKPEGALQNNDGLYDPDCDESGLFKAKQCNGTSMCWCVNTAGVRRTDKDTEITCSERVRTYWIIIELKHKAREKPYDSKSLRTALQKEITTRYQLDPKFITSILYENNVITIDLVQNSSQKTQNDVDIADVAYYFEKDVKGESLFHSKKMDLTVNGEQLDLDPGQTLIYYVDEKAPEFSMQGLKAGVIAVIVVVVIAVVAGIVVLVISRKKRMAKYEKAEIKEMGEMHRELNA

T2: CD19 (human, UniProt P15391 20-556)
T2 construct: whole, on cells; also called CD19 on NALM-6 cells
T2 sequence (looked up): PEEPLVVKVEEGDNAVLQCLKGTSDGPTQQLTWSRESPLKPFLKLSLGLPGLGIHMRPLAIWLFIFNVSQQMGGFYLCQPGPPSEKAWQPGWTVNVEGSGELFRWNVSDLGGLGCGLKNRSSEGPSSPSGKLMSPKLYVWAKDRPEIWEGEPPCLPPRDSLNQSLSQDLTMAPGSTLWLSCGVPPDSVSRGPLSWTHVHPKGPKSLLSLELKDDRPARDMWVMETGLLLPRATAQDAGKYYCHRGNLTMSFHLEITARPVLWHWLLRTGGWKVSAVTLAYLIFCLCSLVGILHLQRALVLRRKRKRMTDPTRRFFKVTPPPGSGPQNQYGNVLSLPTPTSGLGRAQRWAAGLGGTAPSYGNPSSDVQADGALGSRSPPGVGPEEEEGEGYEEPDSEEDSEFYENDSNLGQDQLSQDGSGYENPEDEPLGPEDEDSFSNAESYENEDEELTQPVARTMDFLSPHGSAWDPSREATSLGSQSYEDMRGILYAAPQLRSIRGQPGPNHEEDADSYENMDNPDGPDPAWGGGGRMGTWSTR

B1: deimmunized anti-CD3 (VH5/VL2)×4-7 (VL-VH) (SEQ ID NO.:35) (bispecific antibody)
chain: DVQLVQSGAEVKKPGASVKVSCKASGYTFTRYTMHWVRQAPGQGLEWIGYINPSRGYTNYADSVKGRFTITTDKSTSTAYMELSSLRSEDTATYYCARYYDDHYCLDYWGQGTTVTVSSGEGTSTGSGGSGGSGGADDIVLTQSPATLSLSPGERATLSCRASQSVSYMNWYQQKPGKAPKRWIYDTSKVASGVPARFSGSGSGTDYSLTINSLEAEDAATYYCQQWSSNPLTFGGGTKVEIKSGGGGSELVMTQTPLSLPVSLGDQASISCRSSQSLVHSNGNTYLHWYLQKPGQSPKLLIYKVSNRFSGVPDRFSGSGSGTDFTLKISRVEAEDLGVYFCSQSTHVPYTFGGGTKLEIKGGGGSGGGGSGGGGSEVQLLEQSGAELARPGASVKLSCKASGYTFTNYGLSWVKQRPGQVLEWIGEVYPRIGNAYYNEKFKGKATLTADKSSSTASMELRSLTSEDSAVYFCARRGSYDTNYDWYFDVWGQGTTVTVSS
notes: Bispecific single chain, VH(CD3)-VL(CD3)-VL(EpCAM)-VH(EpCAM); detected by anti-His; also called anti-CD3 (VH5/VL2)x4-7 (VL-VH)
B2: deimmunized anti-CD3 (VH5/VL2)×4-7 (SEQ ID NO.:33) (bispecific antibody)
chain: DVQLVQSGAEVKKPGASVKVSCKASGYTFTRYTMHWVRQAPGQGLEWIGYINPSRGYTNYADSVKGRFTITTDKSTSTAYMELSSLRSEDTATYYCARYYDDHYCLDYWGQGTTVTVSSGEGTSTGSGGSGGSGGADDIVLTQSPATLSLSPGERATLSCRASQSVSYMNWYQQKPGKAPKRWIYDTSKVASGVPARFSGSGSGTDYSLTINSLEAEDAATYYCQQWSSNPLTFGGGTKVEIKSGGGGSEVQLLEQSGAELARPGASVKLSCKASGYTFTNYGLSWVKQRPGQVLEWIGEVYPRIGNAYYNEKFKGKATLTADKSSSTASMELRSLTSEDSAVYFCARRGSYDTNYDWYFDVWGQGTTVTVSSGGGGSGGGGSGGGGSELVMTQTPLSLPVSLGDQASISCRSSQSLVHSNGNTYLHWYLQKPGQSPKLLIYKVSNRFSGVPDRFSGSGSGTDFTLKISRVEAEDLGVYFCSQSTHVPYTFGGGTKLEIK
notes: Bispecific single chain, VH(CD3)-VL(CD3)-VH(EpCAM)-VL(EpCAM); detected by anti-His; also called anti-CD3 (VH5/VL2)x4-7
B3: anti-CD19×anti-CD3 (VH3/VL1) (SEQ ID NO.:184) (bispecific antibody)
chain: DIQLTQSPASLAVSLGQRATISCKASQSVDYDGDSYLNWYQQIPGQPPKLLIYDASNLVSGIPPRFSGSGSGTDFTLNIHPVEKVDAATYHCQQSTEDPWTFGGGTKLEIKGGGGSGGGGSGGGGSQVQLQQSGAELVRPGSSVKISCKASGYAFSSYWMNWVKQRPGQGLEWIGQIWPGDGDTNYNGKFKGKATLTADESSSTAYMQLSSLASEDSAVYFCARRETTTVGRYYYAMDYWGQGTTVTVSSGGGGSDVQLVQSGAEVKKPGASVKVSCKASGYTATRYTMHWVRQAPGQGLEWIGYINPSRGYTNYAQKLQGRVTMTTDTSTSTAYLQMNSLKTEDTAVYYCARYYDDHYCLDYWGQGTTVTVSSGEGTSTGSGGSGGSGGADDIQMTQSPSSLSASVGDRVTITCRASQSVSYMNWYQQKPGKAPKRWIYDTSKVASGVPARFSGSGSGTDYSLTINSLEAEDAATYYCQQWSSNPLTFGGGTKVEIK
notes: As m4: bispecific single chain, His-tagged; also called pEF anti-CD19×anti-CD3 (VH3/VL1)
B4: anti-CD19×anti-CD3 (VH2/VL2) (SEQ ID NO.:180) (bispecific antibody)
chain: DIQLTQSPASLAVSLGQRATISCKASQSVDYDGDSYLNWYQQIPGQPPKLLIYDASNLVSGIPPRFSGSGSGTDFTLNIHPVEKVDAATYHCQQSTEDPWTFGGGTKLEIKGGGGSGGGGSGGGGSQVQLQQSGAELVRPGSSVKISCKASGYAFSSYWMNWVKQRPGQGLEWIGQIWPGDGDTNYNGKFKGKATLTADESSSTAYMQLSSLASEDSAVYFCARRETTTVGRYYYAMDYWGQGTTVTVSSGGGGSDVQLVQSGAEVKKPGASVKVSCKASGYTATRYTMHWVRQAPGQGLEWIGYINPSRGYTNYAQKLQGRVTMTTDTSTSTAYMELSSLRSEDTATYYCARYYDDHYCLDYWGQGTTVTVSSGEGTSTGSGGSGGSGGADDIVLTQSPATLSLSPGERATLSCRASQSVSYMNWYQQKPGKAPKRWIYDTSKVASGVPARFSGSGSGTDYSLTINSLEAEDAATYYCQQWSSNPLTFGGGTKVEIK
notes: As m4: bispecific single chain, His-tagged; also called pEF anti-CD19×anti-CD3 (VH2/VL2)
B5: anti-CD19×anti-CD3 (VH2/VL1) (SEQ ID NO.:178) (bispecific antibody)
chain: B3 chain with L336M, Q337E, M338L, N339S, K342R, T343S, V348T
notes: also called pEF anti-CD19×anti-CD3 (VH2/VL1)
B6: anti-CD19×anti-CD3 (VH5/VL2) (SEQ ID NO.:192) (bispecific antibody)
chain: B4 chain with A284F, Q317D, K318S, L319V, Q320K, V323F, M325I, T329K
notes: As m4: bispecific single chain, His-tagged; also called pEF anti-CD19×anti-CD3 (VH5/VL2); anti-CD3 (VH5/VK2)

How the values were obtained:
human CD3 [1] = biological target: T3, human CD3 (human, UniProt P07766 23-207; P04234 22-171; P09693 23-182); assay: FACS, 10 µg/ml on Jurkat cells
T3 construct: whole, on cells; also called CD3 antigen; human CD3 complex
Experimental: (§1) Binding of the bispecific single chain molecules with anti-CD3 part in N-terminal orientation to EpCAM and CD3 were confirmed by FACS analyses. For that purpose the EpCAM positive human gastric cancer cell line Kato III (ATCC HTB-103) was used.
(§2) Cells were cultured according to the recommendations of the supplier and a number of 200000 cells was incubated with 10 μg/ml of the construct in 50 μl PBS with 2% FCS (fetal calf serum). The binding of the construct was detected with an anti-His antibody (Penta-His Antibody, obtained from Qiagen, Hilden, FRG) at 2 μg/ml in PBS with 2% FCS. […] The samples were measured on a FACSscan (BD biosciences, Heidelberg, FRG).

[2] = biological target: T1, Epithelial cell adhesion molecule …; assay: FACS, 10 µg/ml on EpCAM positive Kato III cells
Experimental: as §1, §2

CD19 = biological target: T2, CD19; assay: FACS, crude supernatant on CD19-positive NALM-6 cells; negative control MFI ca. 3
Experimental: (§3) In order to analyze the binding efficacy of the deimmunized constructs to CD3 and CD19 a FACS-based assay was performed. Initially, crude supernatants were tested for binding on CD3-enriched PBMCs or CD19-positive NALM-6 cells. Cells were incubated with non-diluted supernatants for 30 minutes at 8° C. Upon two wash steps the cells were labeled with an anti-His antibody (Qiagen) under the same conditions. After additional wash steps binding of the constructs was detected with a FITC-conjugated sheep anti-mouse antibody (Sigma). Cells were analyzed with a FACS Calibur cytometer (B&D). As controls supernatants of anti-CD19×anti-CD3 and GFP-transfected cells were included. […] The positive control, which was a non-deimmunized anti-CD19×anti-CD3 construct reached a MFI of around 60 showing that the deimmunized constructs comprising anti-CD3 (VH5/VL1) (SEQ ID NO.:190), anti-CD3 (VH5/VL2) (SEQ ID NO.:192), anti-CD3 (VH5/VL3) (SEQ ID NO.:194), anti-CD3 (VH7/VL1) (SEQ ID NO.:196), anti-CD3 (VH7/VL2) (SEQ ID NO.:198) and anti-CD3 (VH7/VL3) (SEQ ID NO.:200) bound CD3 with extremely high efficacy.
The FACS-based binding assay was also carried out for CD19. In this experiment CD19 and a secondary antibody was as a negative control. In this experiment, all assayed constructs achieved a MFI of at least 80 while the MFI of the negative control was ca. 3.

human CD3 [3] = biological target: T3, human CD3; assay: FACS on CD3-enriched PBMCs
human CD3 [4] = biological target: T3, human CD3; assay: FACS, second experiment, crude supernatant on CD3-enriched PBMCs
Experimental: as §3

human CD3 [5] = biological target: T3, human CD3; assay: FACS, non-diluted crude supernatant on CD3-enriched PBMCs; anti-His + FITC anti-mouse
Experimental: as §3

Binder	binding result (human CD3 [1])	binding result [2]	MFI (CD19)	binding result (human CD3 [3])	MFI (human CD3 [4])	MFI (human CD3 [5])	fold over the negative control (secondary antibody only, MFI ca. 3.5) (human CD3 [5])
B1	binds	binds					
B2	binds	binds					
B3			≥ 80 MFI	no binding (tested: non-diluted supernatant)	~6 MFI		
B4			≥ 80 MFI	no binding (tested: non-diluted supernatant)	~6 MFI		
B5			≥ 80 MFI	no binding (tested: non-diluted supernatant)	~6 MFI		
B6			≥ 80 MFI			≥ 90 MFI	~25 fold
